In the test the target is histone H3 tail symmetrically dimethylated on R2 and trimethylated on K4 (H3R2me2sK4me3). Description: fluorescence polarisation. (Polarisation of emitted light reports the rotation of a fluorescent probe.)

In the case of PHD finger of RAG2 (domain or fragment), the fold increase in binding affinity against H3K4me3 alone amounted to 20 fold.

The values above are taken from paper PMC3377377.
